Broadly, the IC50 is the concentration that inhibits the measured activity by half.

B1: N^ε1-[2-[2-[2-[[(4S)-4-carboxy-4-(19-carboxynonadecanoylamino)butanoyl]amino]ethoxy]ethoxy]acetyl]-[Arg17,Pro21,Pro27,Pro31]-h-amylin (peptide)
peptide: K([AEEA-γGlu-C20 diacid])CNTATCATQRLANFLRHSSPNFGAIPSSTPVGSNTY-NH2
modifications: disulfide 2-7; N-terminus assumed
SMILES: CC[C@H](C)[C@H](NC(=O)[C@H](C)NC(=O)CNC(=O)[C@H](Cc1ccccc1)NC(=O)[C@H](CC(N)=O)NC(=O)[C@@H]1CCCN1C(=O)[C@H](CO)NC(=O)[C@H](CO)NC(=O)[C@H](Cc1c[nH]cn1)NC(=O)[C@H](CCCNC(=N)N)NC(=O)[C@H](CC(C)C)NC(=O)[C@H](Cc1ccccc1)NC(=O)[C@H](CC(N)=O)NC(=O)[C@H](C)NC(=O)[C@H](CC(C)C)NC(=O)[C@H](CCCNC(=N)N)NC(=O)[C@H](CCC(N)=O)NC(=O)[C@@H](NC(=O)[C@H](C)NC(=O)[C@@H]1CSSC[C@H](NC(=O)[C@@H](N)CCCCNC(=O)COCCOCCNC(=O)CC[C@H](NC(=O)CCCCCCCCCCCCCCCCCCC(=O)O)C(=O)O)C(=O)N[C@@H](CC(N)=O)C(=O)N[C@@H]([C@@H](C)O)C(=O)N[C@@H](C)C(=O)N[C@@H]([C@@H](C)O)C(=O)N1)[C@@H](C)O)C(=O)N1CCC[C@H]1C(=O)N[C@@H](CO)C(=O)N[C@@H](CO)C(=O)N[C@H](C(=O)N1CCC[C@H]1C(=O)N[C@H](C(=O)NCC(=O)N[C@@H](CO)C(=O)N[C@@H](CC(N)=O)C(=O)N[C@H](C(=O)N[C@@H](Cc1ccc(O)cc1)C(N)=O)[C@@H](C)O)C(C)C)[C@@H](C)O
notes: Analogue of human amylin; also called compound 49
B2: N^ε1-[2-[2-[2-[[(4S)-4-carboxy-4-(19-carboxynonadecanoylamino)butanoyl]amino]ethoxy]ethoxy]acetyl]-[Gly14,Arg17,Pro21,Pro27,Pro31]-h-amylin (peptide)
peptide: K([AEEA-γGlu-C20 diacid])CNTATCATQRLAGFLRHSSPNFGAIPSSTPVGSNTY-NH2
modifications: disulfide 2-7; N-terminus assumed
SMILES: CC[C@H](C)[C@H](NC(=O)[C@H](C)NC(=O)CNC(=O)[C@H](Cc1ccccc1)NC(=O)[C@H](CC(N)=O)NC(=O)[C@@H]1CCCN1C(=O)[C@H](CO)NC(=O)[C@H](CO)NC(=O)[C@H](Cc1c[nH]cn1)NC(=O)[C@H](CCCNC(=N)N)NC(=O)[C@H](CC(C)C)NC(=O)[C@H](Cc1ccccc1)NC(=O)CNC(=O)[C@H](C)NC(=O)[C@H](CC(C)C)NC(=O)[C@H](CCCNC(=N)N)NC(=O)[C@H](CCC(N)=O)NC(=O)[C@@H](NC(=O)[C@H](C)NC(=O)[C@@H]1CSSC[C@H](NC(=O)[C@@H](N)CCCCNC(=O)COCCOCCNC(=O)CC[C@H](NC(=O)CCCCCCCCCCCCCCCCCCC(=O)O)C(=O)O)C(=O)N[C@@H](CC(N)=O)C(=O)N[C@@H]([C@@H](C)O)C(=O)N[C@@H](C)C(=O)N[C@@H]([C@@H](C)O)C(=O)N1)[C@@H](C)O)C(=O)N1CCC[C@H]1C(=O)N[C@@H](CO)C(=O)N[C@@H](CO)C(=O)N[C@H](C(=O)N1CCC[C@H]1C(=O)N[C@H](C(=O)NCC(=O)N[C@@H](CO)C(=O)N[C@@H](CC(N)=O)C(=O)N[C@H](C(=O)N[C@@H](Cc1ccc(O)cc1)C(N)=O)[C@@H](C)O)C(C)C)[C@@H](C)O
notes: Analogue of human amylin; also called compound 71
B3: N^ε1-[2-[2-[2-[[(4S)-4-carboxy-4-(19-carboxynonadecanoylamino)butanoyl]amino]ethoxy]ethoxy]acetyl]-[Arg17,Pro21,Pro27,Pro34]-h-amylin (peptide)
peptide: K([AEEA-γGlu-C20 diacid])CNTATCATQRLANFLRHSSPNFGAIPSSTNVGPNTY-NH2
modifications: disulfide 2-7; N-terminus assumed
SMILES: CC[C@H](C)[C@H](NC(=O)[C@H](C)NC(=O)CNC(=O)[C@H](Cc1ccccc1)NC(=O)[C@H](CC(N)=O)NC(=O)[C@@H]1CCCN1C(=O)[C@H](CO)NC(=O)[C@H](CO)NC(=O)[C@H](Cc1c[nH]cn1)NC(=O)[C@H](CCCNC(=N)N)NC(=O)[C@H](CC(C)C)NC(=O)[C@H](Cc1ccccc1)NC(=O)[C@H](CC(N)=O)NC(=O)[C@H](C)NC(=O)[C@H](CC(C)C)NC(=O)[C@H](CCCNC(=N)N)NC(=O)[C@H](CCC(N)=O)NC(=O)[C@@H](NC(=O)[C@H](C)NC(=O)[C@@H]1CSSC[C@H](NC(=O)[C@@H](N)CCCCNC(=O)COCCOCCNC(=O)CC[C@H](NC(=O)CCCCCCCCCCCCCCCCCCC(=O)O)C(=O)O)C(=O)N[C@@H](CC(N)=O)C(=O)N[C@@H]([C@@H](C)O)C(=O)N[C@@H](C)C(=O)N[C@@H]([C@@H](C)O)C(=O)N1)[C@@H](C)O)C(=O)N1CCC[C@H]1C(=O)N[C@@H](CO)C(=O)N[C@@H](CO)C(=O)N[C@H](C(=O)N[C@@H](CC(N)=O)C(=O)N[C@H](C(=O)NCC(=O)N1CCC[C@H]1C(=O)N[C@@H](CC(N)=O)C(=O)N[C@H](C(=O)N[C@@H](Cc1ccc(O)cc1)C(N)=O)[C@@H](C)O)C(C)C)[C@@H](C)O
notes: Analogue of human amylin; also called compound 50
B4: N^ε1-[2-[2-[2-[[(4S)-4-carboxy-4-(19-carboxynonadecanoylamino)butanoyl]amino]ethoxy]ethoxy]acetyl]-[Arg17,Pro21,Pro27,Pro34,His35]-h-amylin (peptide)
peptide: K([AEEA-γGlu-C20 diacid])CNTATCATQRLANFLRHSSPNFGAIPSSTNVGPHTY-NH2
modifications: disulfide 2-7; N-terminus assumed
SMILES: CC[C@H](C)[C@H](NC(=O)[C@H](C)NC(=O)CNC(=O)[C@H](Cc1ccccc1)NC(=O)[C@H](CC(N)=O)NC(=O)[C@@H]1CCCN1C(=O)[C@H](CO)NC(=O)[C@H](CO)NC(=O)[C@H](Cc1c[nH]cn1)NC(=O)[C@H](CCCNC(=N)N)NC(=O)[C@H](CC(C)C)NC(=O)[C@H](Cc1ccccc1)NC(=O)[C@H](CC(N)=O)NC(=O)[C@H](C)NC(=O)[C@H](CC(C)C)NC(=O)[C@H](CCCNC(=N)N)NC(=O)[C@H](CCC(N)=O)NC(=O)[C@@H](NC(=O)[C@H](C)NC(=O)[C@@H]1CSSC[C@H](NC(=O)[C@@H](N)CCCCNC(=O)COCCOCCNC(=O)CC[C@H](NC(=O)CCCCCCCCCCCCCCCCCCC(=O)O)C(=O)O)C(=O)N[C@@H](CC(N)=O)C(=O)N[C@@H]([C@@H](C)O)C(=O)N[C@@H](C)C(=O)N[C@@H]([C@@H](C)O)C(=O)N1)[C@@H](C)O)C(=O)N1CCC[C@H]1C(=O)N[C@@H](CO)C(=O)N[C@@H](CO)C(=O)N[C@H](C(=O)N[C@@H](CC(N)=O)C(=O)N[C@H](C(=O)NCC(=O)N1CCC[C@H]1C(=O)N[C@@H](Cc1c[nH]cn1)C(=O)N[C@H](C(=O)N[C@@H](Cc1ccc(O)cc1)C(N)=O)[C@@H](C)O)C(C)C)[C@@H](C)O
notes: Analogue of human amylin; also called compound 58

Numbered stars: 1 amine (or outer) side, 2 acyl side, 3 side chain; on linkers, the order of the positions; unused ones are H or OH. Bridge positions count the residues as written; N and C are the ends. Side chains are listed from the residue outwards. Ends that are not written are not given here. * marks the point of attachment. C20 diacid = O=C(O)CCCCCCCCCCCCCCCCCCC(=O)*; γGlu = O=C(O)[C@H](CCC(=O)[*:2])N[*:1]; AEEA = NCCOCCOCC(=O)O

For the first test, the target named is T1, rat amylin receptor (rat calcitonin receptor + rat RAMP 3) (rat, UniProt P32214 25-516; Q9JJ73 23-147).
T1 construct: whole, on cells; Used as membranes prepared from BHK tk'ts 13 cells transiently transfected with rat calcitonin receptor and rat RAMP 3 (Assay VI); also called rAmylin-R; rat amylin 3(a) receptor
T1 sequence (looked up) 1: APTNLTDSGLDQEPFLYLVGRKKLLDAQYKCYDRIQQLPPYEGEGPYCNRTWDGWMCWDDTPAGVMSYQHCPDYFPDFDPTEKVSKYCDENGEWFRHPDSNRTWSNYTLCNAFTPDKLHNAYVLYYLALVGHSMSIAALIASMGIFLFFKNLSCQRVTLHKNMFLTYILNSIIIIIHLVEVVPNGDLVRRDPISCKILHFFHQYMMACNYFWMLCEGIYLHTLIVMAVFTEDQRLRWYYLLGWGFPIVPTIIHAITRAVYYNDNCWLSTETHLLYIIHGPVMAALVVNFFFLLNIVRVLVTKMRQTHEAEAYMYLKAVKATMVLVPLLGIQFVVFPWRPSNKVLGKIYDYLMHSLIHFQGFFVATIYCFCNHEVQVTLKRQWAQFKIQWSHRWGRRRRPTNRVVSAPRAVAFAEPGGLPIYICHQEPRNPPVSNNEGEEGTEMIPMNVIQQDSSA
T1 sequence (looked up) 2: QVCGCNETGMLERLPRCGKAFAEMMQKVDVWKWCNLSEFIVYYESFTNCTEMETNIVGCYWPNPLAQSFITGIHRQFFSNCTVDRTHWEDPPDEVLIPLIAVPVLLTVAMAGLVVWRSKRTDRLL
The test can be described thus: SPA competition with 125I-rat amylin, membranes of BHK cells with rat CTR + rat RAMP3 (Assay VI).
In the case of B1, the IC50 was 1.08 nM.

In the case of B2, the IC50 is 0.276 nM.

For the molecule B3, the IC50 was determined as 0.069 nM.

As to B4, the IC50 amounted to 0.135 nM.

A further test addresses T2, rat calcitonin receptor (rat, UniProt P32214 25-516).
T2 construct: whole, on cells; Used as membranes prepared from BHK tk'ts 13 cells transiently transfected with the rat calcitonin receptor (Assay VIII); also called rCTR; rat calcitonin (a) receptor
T2 sequence (looked up): T1 sequence (looked up) 1
Put plainly: SPA competition with 125I-calcitonin, membranes of BHK cells with rat CTR (Assay VIII).
For the molecule B1, the half-maximal inhibitory concentration (IC50) is 51.4 nM.

B2: the concentration for half-maximal inhibition (IC50) was found to be 44.8 nM.

On to B3, for which the 50% inhibitory concentration (IC50) worked out at 5.63 nM.

B4: the IC50 came to 10.3 nM.

The target of a further test is T2, rat calcitonin receptor. Put plainly: IC50 on rat CTR divided by IC50 on rat amylin receptor (Assays VIII/VI).
Turning to B1, the “Ratio rCT/rAmylin binding” value stood at 47.7.

Regarding B2, the “Ratio rCT/rAmylin binding” value came out at 162.

In the case of B3, the “Ratio rCT/rAmylin binding” value was determined as 81.7.

As to B4, the “Ratio rCT/rAmylin binding” value is 76.6.

The next test deals with T3, human calcitonin receptor (human, UniProt P30988 25-474).
T3 construct: whole, on cells; Used as membranes prepared from a BHK tk'ts 13 cell line stably transfected with the human calcitonin receptor (Assay VII); also called hCTR; hCT
T3 sequence (looked up): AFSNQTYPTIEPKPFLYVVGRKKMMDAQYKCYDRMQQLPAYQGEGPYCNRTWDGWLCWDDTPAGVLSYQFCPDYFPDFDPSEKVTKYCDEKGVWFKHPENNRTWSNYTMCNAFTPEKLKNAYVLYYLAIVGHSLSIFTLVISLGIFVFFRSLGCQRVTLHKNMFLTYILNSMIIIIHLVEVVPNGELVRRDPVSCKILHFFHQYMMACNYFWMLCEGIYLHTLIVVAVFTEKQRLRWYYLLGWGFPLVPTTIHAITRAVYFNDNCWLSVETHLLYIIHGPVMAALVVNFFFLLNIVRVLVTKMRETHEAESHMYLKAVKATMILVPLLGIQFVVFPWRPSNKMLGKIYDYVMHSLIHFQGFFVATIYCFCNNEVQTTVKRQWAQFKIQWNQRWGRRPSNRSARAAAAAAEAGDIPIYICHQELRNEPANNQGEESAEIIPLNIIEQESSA
Put plainly: IC50 on human CTR divided by IC50 on human amylin receptor (Assays VII/V). Summed up: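 Scintillation proximity competition binding on cell membranes at 35 ng/μL with SPA beads, in 50 mM Hepes pH 7.4, 1 mM CaCl2, 5 mM MgCl₂, 0.1% OA, 0.02% Tween20. Incubated 120 min at 25° C with shaking. IC₅₀ from one-site competition fit.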
Take B1: the “Ratio hCT/hAmylin binding” value is 10.8.

Regarding B2, the “Ratio hCT/hAmylin binding” value came to 32.

For the molecule B3, the “Ratio hCT/hAmylin binding” value was 36.

On to B4, for which the “Ratio hCT/hAmylin binding” value is 109.
